In data set [1] the target is T1, MarR (Escherichia coli MG1655) (UniProt P27245).
T1 sequence: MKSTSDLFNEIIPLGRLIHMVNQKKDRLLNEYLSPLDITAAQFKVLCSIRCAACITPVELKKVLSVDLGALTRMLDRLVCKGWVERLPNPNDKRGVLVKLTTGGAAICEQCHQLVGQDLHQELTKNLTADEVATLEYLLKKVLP
The data set is described as follows: EMSA. Particulars: EMSA: 10 mM Tris, 50 mM KCl, 5% glycerin, pH 8.0, 25 C, 30 min, 20 nM probe, 15 uL; 6% native PAGE. On the technique in general: In EMSA bound probe runs differently from free probe, usually more slowly.

Data set [2] deals with T2, MarR-5XS C47S;C51S;C54S;C108S;C111S (Escherichia coli MG1655) (UniProt P27245).
T2 sequence: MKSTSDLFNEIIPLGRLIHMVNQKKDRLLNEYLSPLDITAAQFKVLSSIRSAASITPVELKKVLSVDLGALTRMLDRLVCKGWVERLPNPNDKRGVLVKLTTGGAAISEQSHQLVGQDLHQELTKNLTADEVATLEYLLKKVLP
The data set is described as follows: EMSA. Particulars: EMSA: 10 mM Tris, 50 mM KCl, 5% glycerin, pH 8.0, 25 C, 30 min, 20 nM probe, 15 uL; 6% native PAGE.

The target in a further data set is P27245. As to the kind of experiment: SEC; Superdex-200, 10 mM Tris-HCl pH 8.0, 100 mM NaCl; MarR-5XS (25 µM) after 400 µM H2Sn for 20 min; dimers to tetramer; mass calibrated with BSA (67 kDa) and T7 RNA polymerase (99 kDa). A general note: In gel filtration, larger molecules generally elute earlier.
Data set [3] concerns the molecule itself. As to the kind of experiment: cross-linking; LC-MS/MS of tryptic peptides of MarR reacted with 10-fold H2Sn, anaerobic, room temperature, 30 min; free thiols blocked with iodoacetamide; disulfide- and trisulfide-linked Cys80 peptides identified.
Data set [4] deals with the molecule itself. The data set is described as follows: SEC; Superdex-200, 10 mM Tris-HCl pH 8.0, 100 mM NaCl; untreated MarR-5XS, 25 µM; monomers to dimer.
Data set [5] deals with the molecule itself. The data set is described as follows: SEC; Superdex-200, 10 mM Tris-HCl pH 8.0, 100 mM NaCl; MarR-5XS (25 µM) after 400 µM H2Sn for 20 min; dimers to tetramer; mass calibrated with BSA (67 kDa) and T7 RNA polymerase (99 kDa).

As to “CATCGCATTGAACAAAACTTGAACCGATTTAGCAAAACGTGGCATCGGTCAATTCATTCATTTGACTTATACTTGCCTGGGCAATATTATCCCCTGCAAC (double strand) [marRAB promoter EMSA probe]”, the binding result in data set [1] and in data set [2] was “binds” throughout.

B1: H2Sn-treated MarR-5XS (protein)
chain: MKSTSDLFNEIIPLGRLIHMVNQKKDRLLNEYLSPLDITAAQFKVLSSIRSAASITPVELKKVLSVDLGALTRMLDRLVCKGWVERLPNPNDKRGVLVKLTTGGAAISEQSHQLVGQDLHQELTKNLTADEVATLEYLLKKVLP
With B1, in the data set with P27245, the “percent of protein as dimer (SEC peak area)” value was “the dimer, tetramer, and multimer represented 37.4%, 54.1%, and 8.5%”; the “percent of protein as multimer (SEC peak area)” value is “the dimer, tetramer, and multimer represented 37.4%, 54.1%, and 8.5%”; the “percent of protein as tetramer (SEC peak area)” value is “the dimer, tetramer, and multimer represented 37.4%, 54.1%, and 8.5%”.

B2: H2Sn-treated MarR (natural protein)
chain: MKSTSDLFNEIIPLGRLIHMVNQKKDRLLNEYLSPLDITAAQFKVLCSIRCAACITPVELKKVLSVDLGALTRMLDRLVCKGWVERLPNPNDKRGVLVKLTTGGAAICEQCHQLVGQDLHQELTKNLTADEVATLEYLLKKVLP
modifications: Cys80 linked to Cys80 of another chain by a disulfide (Cys80-Cys80) or trisulfide (Cys80-S-Cys80) bond
notes: Multiple antibiotic resistance regulator MarR of E. coli MG1655, gene b1530; primers run from the GTG start codon to the stop codon; treated with polysulfide (H2Sn); SEC was done only with MarR-5XS; The vector pET30a may add further residues between the His tag and MarR (surmised from the primer); also called pET30-MarR product; source: E. coli BL21, purified (Ni-NTA) in an anaerobic chamber, …
Consider B2, for which, in data set [3], the binding result was “binds”.

B3: MarR-5XS (untreated) (natural protein)
chain: MKSTSDLFNEIIPLGRLIHMVNQKKDRLLNEYLSPLDITAAQFKVLSSIRSAASITPVELKKVLSVDLGALTRMLDRLVCKGWVERLPNPNDKRGVLVKLTTGGAAISEQSHQLVGQDLHQELTKNLTADEVATLEYLLKKVLP
notes: Multiple antibiotic resistance regulator MarR of E. coli MG1655, gene b1530; primers run from the GTG start codon to the stop codon; all Cys except Cys80 changed to Ser; Made from pET30a; Primarily a dimer by SEC; also called MarR/5CS; MarR-5CS; source: E. coli BL21(DE3), purified (Ni-NTA, PD-10 desalting) under anaerobic conditions
Turning to B3, the “stoichiometry N” value in data set [4] came out at 2.

B4: H2Sn-treated MarR-5XS (natural protein)
chain: MKSTSDLFNEIIPLGRLIHMVNQKKDRLLNEYLSPLDITAAQFKVLSSIRSAASITPVELKKVLSVDLGALTRMLDRLVCKGWVERLPNPNDKRGVLVKLTTGGAAISEQSHQLVGQDLHQELTKNLTADEVATLEYLLKKVLP
modifications: Cys80 disulfide between chains after H2Sn treatment (disulfide-stabilized tetramer)
notes: Multiple antibiotic resistance regulator MarR of E. coli MG1655, gene b1530; primers run from the GTG start codon to the stop codon; all Cys except Cys80 changed to Ser; treated with polysulfide (H2Sn); The treated sample is a mixture of dimer, tetramer and possibly multimers by SEC; the tetramer is the main species; The disulfide and trisulfide at Cys80 were identified by LC-MS/MS on treated …
Take B4: the “stoichiometry N” value in data set [5] came to 4.

As a reminder, the stoichiometry N is a count of units in the complex or per binding partner.

The values are drawn from article PMC8614764, “Sulfane Sulfur Is a Strong Inducer of the Multiple Antibiotic Resistance Regulator MarR in Escherichia coli” (Antioxidants, 2021).
